Holding throughout (assay): stopped-flow fluorometry; mGppNHp-bound RHO protein (0.2 μM) rapidly mixed with IQGAP1 variant (2 μM, or 2-12 μM for kon); koff by displacement with 10 μM non-fluorescent GppNHp-bound GTPase; Kd = koff/kon; 30 mM Tris-HCl pH 7.5, 10 mM KH2PO4/K2HPO4, 5 mM MgCl2, 3 mM DTT
What all share (details): both partners purified

For test [1], the target named is T1, IQGAP1 GRD1-RGCT S1443E (aa 877-1558) (human, UniProt P46940 877-1558, S1443E).
T1 construct: human IQGAP1 aa 877-1558 with the phosphomimetic mutation S1443E (printed as S1143E in the methods, S1443E everywhere else), from the vector pET46 EkLIC; source: E. coli (pLysS BL21(DE3), CodonPlusRIL or BL21(Rosetta)), purified (Ni-NTA, gel filtration)
T1 sequence (looked up): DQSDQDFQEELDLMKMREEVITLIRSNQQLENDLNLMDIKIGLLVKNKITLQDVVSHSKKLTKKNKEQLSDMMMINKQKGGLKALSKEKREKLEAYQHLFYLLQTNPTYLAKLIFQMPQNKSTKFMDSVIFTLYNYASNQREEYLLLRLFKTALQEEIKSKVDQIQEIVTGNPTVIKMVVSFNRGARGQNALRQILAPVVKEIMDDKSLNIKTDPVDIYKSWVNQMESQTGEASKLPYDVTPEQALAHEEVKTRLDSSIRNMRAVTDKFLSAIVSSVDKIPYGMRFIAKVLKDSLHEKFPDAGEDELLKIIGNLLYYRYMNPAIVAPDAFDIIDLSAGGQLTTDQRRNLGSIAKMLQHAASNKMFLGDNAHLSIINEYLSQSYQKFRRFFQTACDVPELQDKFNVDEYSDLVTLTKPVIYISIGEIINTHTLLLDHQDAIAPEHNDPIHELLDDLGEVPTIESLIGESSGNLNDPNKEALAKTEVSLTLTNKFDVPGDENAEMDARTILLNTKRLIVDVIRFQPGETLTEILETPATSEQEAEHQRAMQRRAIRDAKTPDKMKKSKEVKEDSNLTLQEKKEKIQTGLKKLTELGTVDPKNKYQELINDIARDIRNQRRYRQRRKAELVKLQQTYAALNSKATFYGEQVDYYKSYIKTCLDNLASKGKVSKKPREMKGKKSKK

The target in test [2] is T2, IQGAP1 GRD1-CT (aa 863-1657) (human, UniProt P46940 863-1657).
T2 construct: human IQGAP1, GRD, RGCT and CT domains, aa 863-1657; The GST tag was cleaved 'if needed'; also called C-terminal half of IQGAP1; C-terminal 795 amino acids of IQGAP1
T2 sequence (looked up): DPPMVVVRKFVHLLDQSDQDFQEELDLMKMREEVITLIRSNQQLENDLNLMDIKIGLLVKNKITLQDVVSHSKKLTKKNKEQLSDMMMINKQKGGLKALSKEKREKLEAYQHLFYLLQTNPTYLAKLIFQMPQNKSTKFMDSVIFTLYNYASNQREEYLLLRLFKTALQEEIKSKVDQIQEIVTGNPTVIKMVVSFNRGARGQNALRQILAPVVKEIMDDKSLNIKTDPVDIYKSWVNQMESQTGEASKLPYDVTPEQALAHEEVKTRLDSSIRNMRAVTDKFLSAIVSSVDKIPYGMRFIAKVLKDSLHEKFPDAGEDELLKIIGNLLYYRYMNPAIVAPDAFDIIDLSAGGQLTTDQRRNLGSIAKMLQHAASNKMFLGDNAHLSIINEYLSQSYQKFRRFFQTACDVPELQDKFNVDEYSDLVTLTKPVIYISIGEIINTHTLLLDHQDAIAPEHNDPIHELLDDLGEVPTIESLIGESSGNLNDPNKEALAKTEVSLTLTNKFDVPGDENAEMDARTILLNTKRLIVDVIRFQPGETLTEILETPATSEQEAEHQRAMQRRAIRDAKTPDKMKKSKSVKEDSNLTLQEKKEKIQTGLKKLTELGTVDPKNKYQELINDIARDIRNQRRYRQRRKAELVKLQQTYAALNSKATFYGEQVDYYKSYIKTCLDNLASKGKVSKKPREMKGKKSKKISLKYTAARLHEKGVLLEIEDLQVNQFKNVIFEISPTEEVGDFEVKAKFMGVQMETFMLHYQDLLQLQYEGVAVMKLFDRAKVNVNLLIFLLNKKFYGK

Test [3] addresses T3, IQGAP1 GRD1-RGCT wild type (aa 877-1558) (human, UniProt P46940 877-1558).
T3 construct: human IQGAP1, GRD and RGCT domains, lacks the last 99 amino acids, aa 877-1558; also called GRD1-RGCT^WT; IQGAP1^877-1558
T3 sequence (looked up): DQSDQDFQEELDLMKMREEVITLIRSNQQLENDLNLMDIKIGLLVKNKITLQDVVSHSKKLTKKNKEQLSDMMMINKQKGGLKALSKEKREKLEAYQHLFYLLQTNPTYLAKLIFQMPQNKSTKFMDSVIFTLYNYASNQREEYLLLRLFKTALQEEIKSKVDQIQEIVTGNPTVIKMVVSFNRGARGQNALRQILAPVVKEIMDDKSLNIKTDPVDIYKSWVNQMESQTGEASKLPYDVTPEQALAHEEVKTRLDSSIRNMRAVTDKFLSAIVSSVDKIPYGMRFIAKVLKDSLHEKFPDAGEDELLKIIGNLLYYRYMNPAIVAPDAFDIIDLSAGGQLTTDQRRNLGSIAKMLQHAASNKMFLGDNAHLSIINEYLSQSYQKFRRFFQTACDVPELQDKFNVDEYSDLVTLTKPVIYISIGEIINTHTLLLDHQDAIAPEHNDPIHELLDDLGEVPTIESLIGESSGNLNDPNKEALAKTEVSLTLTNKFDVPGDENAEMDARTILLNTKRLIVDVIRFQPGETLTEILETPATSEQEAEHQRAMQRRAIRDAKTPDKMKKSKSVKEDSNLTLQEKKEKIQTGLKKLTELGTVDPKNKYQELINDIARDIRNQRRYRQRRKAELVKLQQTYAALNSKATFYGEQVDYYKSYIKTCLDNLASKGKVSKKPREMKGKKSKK

One molecule from article PMC5159498, “IQGAP1 Interaction with RHO Family Proteins Revisited” (The Journal of Biological Chemistry, 2016) can be followed below.

B1: CDC42 (aa 1-178) (domain or fragment)
chain: not shown
notes: human CDC42, C-terminally truncated, aa 1-178; Loaded non-covalently with mGppNHp, tGppNHp, mGDP or non-fluorescent GppNHp; the nucleotide is named in the format of each assay; also called CDC42^WT; CDC42-mGppNHp
As to B1, the Kd (usually the equilibrium constant for the complex coming apart) in test [1] was determined as 7.03 µM; in test [2] it was 0.3 µM; in test [3] it was 2.72 µM.
